How the values were obtained:
cell-bound CD73 = target: T1, cell-bound CD73 (human, UniProt P21589 27-549); assay: cell-based or functional assay
T1 sequence (looked up): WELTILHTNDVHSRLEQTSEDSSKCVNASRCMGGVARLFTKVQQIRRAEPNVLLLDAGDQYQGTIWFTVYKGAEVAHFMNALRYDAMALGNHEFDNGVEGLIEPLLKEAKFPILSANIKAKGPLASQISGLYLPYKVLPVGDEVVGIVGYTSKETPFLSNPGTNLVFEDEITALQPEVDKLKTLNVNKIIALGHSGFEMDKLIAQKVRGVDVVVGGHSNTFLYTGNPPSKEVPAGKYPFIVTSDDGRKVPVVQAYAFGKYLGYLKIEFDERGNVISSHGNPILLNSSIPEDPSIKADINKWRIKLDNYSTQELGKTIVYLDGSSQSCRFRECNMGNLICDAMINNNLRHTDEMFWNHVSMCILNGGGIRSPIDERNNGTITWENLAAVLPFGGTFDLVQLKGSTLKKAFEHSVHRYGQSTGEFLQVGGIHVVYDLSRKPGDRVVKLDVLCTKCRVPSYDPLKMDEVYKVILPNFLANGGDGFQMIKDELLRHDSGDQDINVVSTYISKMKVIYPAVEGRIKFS

non-cell-bound CD73 = target: T2, non-cell-bound CD73 (human, UniProt P21589 27-549, limits assumed); assay: cell-based or functional assay
T2 sequence (looked up): T1 sequence (looked up)

| % of max. adenosine inhibition, washed Colo-201 cells (cell-bound CD73) [%] | CD8 T cell proliferation [% of control], Donor A, 1 nM antibody (cell-bound CD73) [%] | CD8 T cell proliferation [% of control], Donor B, 1 nM antibody (cell-bound CD73) [%] | CD8 T cell proliferation [% of control], Donor C, 1 nM antibody (cell-bound CD73) [%] | CD8 T cell proliferation [% of control], Donor D, 1 nM antibody (cell-bound CD73) [%] | CD8 T cell proliferation [% of control], Donor E, 1 nM antibody (cell-bound CD73) [%] | CD8 T cell proliferation [% of control], Donor F, 1 nM antibody (cell-bound CD73) [%] | CD73 surface reduction [%] on Colo201 cells, 24 h, flow cytometry (cell-bound CD73) [%] | IFNγ release [fold change over control], Donor A, 1 nM antibody (cell-bound CD73) [fold] | IFNγ release [fold change over control], Donor B, 1 nM antibody (cell-bound CD73) [fold] | IFNγ release [fold change over control], Donor C, 1 nM antibody (cell-bound CD73) [fold] | IFNγ release [fold change over control], Donor D, 1 nM antibody (cell-bound CD73) [fold] | IFNγ release [fold change over control], Donor E, 1 nM antibody (cell-bound CD73) [fold] | IFNγ release [fold change over control], Donor F, 1 nM antibody (cell-bound CD73) [fold] | Max. adenosine inhibition [%] in Colo201 cells (cell-bound CD73) [%] | % of max. adenosine inhibition, Colo-201 culture supernatant (non-cell-bound CD73) [%] | Substance |
| --- | --- | --- | --- | --- | --- | --- | --- | --- | --- | --- | --- | --- | --- | --- | --- | --- |
| 62 | 43.9 | 46.7 | 115 | 98 | 85.5 | -34.1 | 17 | 7.7 | 5.3 | 16.2 | 20.7 | 5 | 1.1 | 63 | 56 | "MEDI9447" (antibody) |
| 84 | 40.7 | 61.7 | 99.6 | 98.7 | 95.4 | 22.5 | 58 | 10.9 | 5.2 | 36.4 | 13.3 | 7.2 | 2.9 | 68 | 63 | "BMS986179" (antibody) |

Reference: patent publication US20190352420A1 (Boehringer Ingelheim, published 2019)
